Paper PMC1977788 (1992)

Experiments:
EGFR [1] = target: T1, EGFR (Homo sapiens, UniProt P00533); assay: 125I-EGF whole-cell saturation binding, ZR-75-9a1 FCSdcc 2 weeks, Woolf analysis
EGFR [2] = target: T1, EGFR; assay: 125I-EGF whole-cell saturation binding, ZR-75-1 cells, Woolf analysis
EGFR [3] = target: T1, EGFR; assay: 125I-EGF whole-cell saturation binding, ZR-PR-LT cells + acid wash, Woolf analysis
EGFR [4] = target: T1, EGFR; assay: 125I-EGF whole-cell saturation binding, ZR-75-9a1 FCSdcc 2 years, Woolf analysis
EGFR [5] = target: T1, EGFR; assay: 125I-EGF whole-cell saturation binding, ZR-75-9a1 8 uM cells, Woolf analysis
EGFR [6] = target: T1, EGFR; assay: 125I-EGF whole-cell saturation binding, ZR-PR-LT cells, Woolf analysis
EGFR [7] = target: T1, EGFR; assay: 125I-EGF whole-cell saturation binding, ZR-75-9a1 FCSdcc 1 week, Woolf analysis
EGFR [8] = target: T1, EGFR; assay: 125I-EGF whole-cell saturation binding, ZR-PR-LT cells + suramin pretreatment, Woolf analysis
EGFR [9] = target: T1, EGFR; assay: 125I-EGF whole-cell saturation binding, ZR-75-9a1 FCSdcc 4 weeks, Woolf analysis

B1: EGF (protein)
chain: NSYPGCPSSYDGYCLNGGVCMHIESLDSYTCNCVIGYSGDRCQTRDLRWWELR
In the case of B1, the Kd (EGFR [1]) is reported as 0.28 nM, the Kd (EGFR [2]) is reported as 0.23 nM and the Kd (EGFR [3]) is reported as 0.21 nM. The Kd (EGFR [4]) was 0.18 nM, the Kd (EGFR [5]) was 0.19 nM and the Kd (EGFR [6]) was 0.26 nM. The Kd (EGFR [7]) was 0.37 nM, the Kd (EGFR [8]) was 0.31 nM and the Kd (EGFR [9]) was 0.14 nM.
